Measurements taken from the supplement of paper PMC9170038.

System: MS2 coat protein
Assay: apparent KD of MS2 coat protein; designed switch direction (-1 OFF switch, 1 ON switch): -1; higher = weaker reporter binding
Method in brief: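 Transcription of designed RNA switches on Illumina chips was done by stalled E. coli RNA polymerase. SNAP-549-labelled MS2 coat protein was then titrated in doubling steps from 0.7 or 1.5 nM to 3 µM, with steps of 0.8–1.5 h at the lowest and 10–20 min at the highest concentration. The per-design median over clusters of curve-fitted normalised fluorescence is reported as apparent KD.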

[1] = Eterna round: R95, input ligand: FMN 200 uM
[2] = Eterna round: R95, input ligand: microRNA oligo, concentration not stated
[3] = Eterna round: R95, input ligand: none

| Sequence | apparent KD of MS2 coat protein [1] [nM] | apparent KD of MS2 coat protein [2] [nM] | apparent KD of MS2 coat protein [3] [nM] | apparent KD of MS2 coat protein (input ligand: FMN 200 uM) [nM] | apparent KD of MS2 coat protein (input ligand: none) [nM] |
| --- | --- | --- | --- | --- | --- |
| AAAAAACAAGGAUAUACUAAGGAUGAUUAUCUUAAUUUUUGACAUGAGGAUCACCCAUGUAGAAGGUGUUAAAA [JR_Exclusion2_Sub007] (puzzle: Exclusion 2) | 98.9 | 47.5 | 41.2 | – | – |
| AAAAAGGUAGGAUAUCCACUUUAAAACAUGAGGAUCACCCAUGUAAAACCACAUGAAAAAGGAGAAGGACCAAAAA [AK-MS2ROC-r4-exclusion5-2] (Eterna round: R97, puzzle: Exclusion 5) | – | – | – | 24.7 | 26 |
| AAAACGUCAGGAUAUCCAAUAUAUGACAUGAGGAUCACCCAUGUUUCCACUCGUACCUCCGGAGAAGGGACUUAUA [Ex5 #83] (Eterna round: R97, puzzle: Exclusion 5) | – | – | – | 43.9 | 46.2 |
| AAAAGAUAAGGAUAUUGAAGGUUCGACAUGAGGAUCACCCAUGUUAUGUUGGAAAAGGGACAAGAAGGUAUGAAAG [salish99_ex5_r4_203] (Eterna round: R97, puzzle: Exclusion 5) | – | – | – | 31.5 | 41.8 |
| AAAAGGCUAGGAUAUACCAGUGGGUGUAAGAACUCAAAUUUACAUGAGGAUCACCCAUGUAGAAGGAGUAAAAU [Dilaed] (puzzle: Exclusion 2) | – | 19.5 | – | – | – |
| AAAAGGCUAGGAUAUCGCGGUAACAACAUGAGGAUCACCCAUGUGAAGGUGUCUUCUGCCCGAGAAGGAGCAGAGU [Tientixe] (puzzle: Exclusion 5) | 43.2 | 25.6 | 29.9 | – | – |
| AAAAGGUCAGGAUAUACAAGAAAAGAAAAGAAAAGAAAAGAGUAGAAGGGACAUGAGGAUCACCCAUGUAAAAG [Default title] (puzzle: Exclusion 4) | 30.6 | 45.8 | 35.1 | – | – |
| AAAAGGUGAGGAUAUGAGGCGCCGGGCCGGUUGGUGCGGAUUCAGAAGGCACAUGAGGAUCACCCAUGUAAUAA [Excls4-II] (puzzle: Exclusion 4) | 52.2 | 38.7 | 50.4 | – | – |
| AAACACUUAGGAUAUACAUGAGGAUCACCCAUGUCAGACAACGACUACACAAAGUCAUGUAGAAGGAAGUCAAG [Islarele] (puzzle: Exclusion 3) | 24.3 | 24.1 | 26 | – | – |
| AAACCCUGAGGAUAUACAUAACAACAAAUCCUCACGUGCCAACAUGAGGAUCACCCAUGUAGAAGGCAGGCCCA [Bigegedi] (puzzle: Exclusion 2) | 48.4 | 15.8 | 15.3 | – | – |
| AAACGCCGAGGAUAUACCCAACCAGUCCUCUAAAGAAGAAAACAUGAGGAUCACCCAUGUAGAAGGCGGUGCAA [Anorti] (Eterna round: R97, puzzle: Exclusion 2) | – | – | – | 51.8 | 28.1 |
| AAACGGCGGAUCGUGGCUUUUUGCUCGUCUUGUGCUUCAACAUGAGGAUCACCCAUGUAGUGGUGAUCCGUUGUAAA [Grok-var2-17 mod JAL] (puzzle: Sensor v3, turn-off variant 2) | 25.8 | 26.7 | 42.1 | – | – |
| AAACGGUAAGGAUAUCGGGCAACGGACAUGAGGAUCACCCAUGUGAACCUGCGUAUCCUCCGAGAAGGUACAAAAG [Diinbibe] (Eterna round: R97, puzzle: Exclusion 5) | – | – | – | 20 | 10.9 |
| AAAGCACAUGAGGAUCACCCAUGUGAGGAUAUACAGAAAAUCUCGUUUACGAGGACUCGUAGAAGGCGCAGUGC [Eternabot (L2) Solution 19] (Eterna round: R97, puzzle: Exclusion 1) | – | – | – | 20.9 | 21.3 |
| AAAUAACAAGCAAGAUCCUACAUGAGGAUCACCCAUGUGCUCGUCUUAUAAAGUACUAUCACGAAAGUGAUAGUACA [Sensor 3, v1 - 11] (puzzle: Sensor v3, turn-off variant 1) | 675 | 392 | 546 | – | – |
